Experimental findings from patent publication US6610500 are described below.

For assay [1], the target named is human p140 TrkA receptor (human) (UniProt P04629). In words: Scatchard analysis of 125I[5C3] binding to E25 cells, 4° C.
The target is the same in assay [2]. In words: summary of the 125I[5C3] binding studies.
The target is the same in assay [3]. In words: Scatchard analysis of 125I[5C3] binding to 4-3.6 cells, 4° C.
For assay [4] the target is unchanged. In words: 125I[NGF] binding to E25 cells after preincubation with excess unlabeled mAb 5C3.
For assay [5] the target is unchanged. In words: Scatchard analysis of 125I[5C3] binding to 4-3.6 cells.
Assay [6] shares this target. In words: cell-based or functional assay.
Assay [7] has the same target. In words: 125I[NGF] (~1 nM) binding to E25 cells after preincubation with excess unlabeled mAb 5C3; competitor unlabeled mAb 5C3.
Assay [8] shares this target. In words: Scatchard analysis of 125I[5C3] binding to E25 cells.
Assay [9] shares this target. In words: 125I[NGF] binding to E25 cells blocked with 5 µM unlabeled NGF (defined as background).
The target is the same in assay [10]. In words: FACScan 5C3 surface staining of 4-3.6 cells after NGF treatment at 37° C., relative to vehicle (100%); competitor mAb 5C3.
The target is the same in assay [11]. In words: FACScan 5C3 surface staining of 4-3.6 cells after NGF treatment at 4° C., relative to vehicle (100%); competitor mAb 5C3.

For orientation: Kd means a measure of binding affinity in units of concentration. The low end stands for higher affinity, the high end for lower affinity.

Chain of UniProt P04629 (P04629 33-796): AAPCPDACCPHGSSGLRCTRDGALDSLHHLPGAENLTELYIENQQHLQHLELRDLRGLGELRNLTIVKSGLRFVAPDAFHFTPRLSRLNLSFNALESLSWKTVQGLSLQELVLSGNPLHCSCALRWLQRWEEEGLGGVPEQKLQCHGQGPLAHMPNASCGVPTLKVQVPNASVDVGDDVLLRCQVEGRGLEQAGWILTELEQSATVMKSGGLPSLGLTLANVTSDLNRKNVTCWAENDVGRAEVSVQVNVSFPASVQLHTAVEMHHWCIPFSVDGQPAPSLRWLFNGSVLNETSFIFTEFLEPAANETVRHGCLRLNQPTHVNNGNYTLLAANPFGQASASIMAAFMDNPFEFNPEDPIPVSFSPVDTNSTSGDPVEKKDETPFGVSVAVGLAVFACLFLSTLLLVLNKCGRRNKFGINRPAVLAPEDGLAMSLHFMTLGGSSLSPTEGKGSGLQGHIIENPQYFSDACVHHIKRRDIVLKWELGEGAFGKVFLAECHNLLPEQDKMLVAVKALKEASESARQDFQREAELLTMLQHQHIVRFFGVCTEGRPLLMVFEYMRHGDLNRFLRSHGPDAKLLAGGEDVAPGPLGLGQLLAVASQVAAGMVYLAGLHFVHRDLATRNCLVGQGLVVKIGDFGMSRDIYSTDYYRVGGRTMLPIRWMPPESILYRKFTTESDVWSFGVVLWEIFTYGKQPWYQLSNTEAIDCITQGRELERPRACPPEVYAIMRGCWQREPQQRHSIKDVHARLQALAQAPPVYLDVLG

anti-human TrkA monoclonal antibody 5C3 showed a Kd in [1] of 1.6 nM. Besides, the Kd in assay [2] came out at 2 nM. Further, the Kd in [3] came out at 3 nM. Moreover, the % inhibition of 125I[NGF] binding in [4] worked out at 60%. The substance further registered a 5C3 binding sites/cell in [5] of 200000 sites/cell. In assay [6], this substance showed a % 5C3 STAINING after 5C3 (0.01 µg/ml) treatment at 4° C. (receptor internalization, 4-3.6 cells) of 96%; a % 5C3 STAINING after 5C3 (0.01 µg/ml) treatment at 37° C. (receptor internalization, 4-3.6 cells) of 77%; an FOLD INCREASE IN FOCI with respect to mIgG treated cells of 1.9 fold; a TYPICAL CELLS/FOCI (E25 cells in soft agar) of over 48 cells/foci. In assay [6], this substance displayed a fold increase in PY of TrkA with respect to untreated cells (4-3.6 cells) of 3.4 fold and a fold increase in PY of TrkA with respect to untreated cells (E25 cells) of 2.7 fold. The substance further registered a % NGF BINDING in [7] of 39.3%. The 5C3 binding sites/cell in assay [8] came out at 250000 sites/cell.
As for Nerve Growth Factor (ligand), in [9], the % NGF BINDING was 0%. Moreover, the % 5C3 STAINING in assay [10] was determined as 75%. Besides, in assay [6], the FOLD INCREASE IN FOCI with respect to mIgG treated cells was 1.6 fold, the TYPICAL CELLS/FOCI (E25 cells in soft agar) amounted to 24 cells/foci, the fold increase in PY of TrkA with respect to untreated cells (4-3.6 cells) stood at 3.8 fold and the fold increase in PY of TrkA with respect to untreated cells (E25 cells) came to 6.5 fold. Also, the % 5C3 STAINING in assay [11] worked out at 83%.
